Experimental data taken from US20230183713A1, “SITE-SPECIFIC RECOMBINASES FOR EFFICIENT AND SPECIFIC GENOME EDITING” (TECHNISCHE UNIVERSITÄt DRESDEN, published 2023).
Residue numbers refer to the chain shown, from its start. Names and notes keep the numbering of the source.

T1: Cre recombinase monomer with K201A mutation
T1 chain: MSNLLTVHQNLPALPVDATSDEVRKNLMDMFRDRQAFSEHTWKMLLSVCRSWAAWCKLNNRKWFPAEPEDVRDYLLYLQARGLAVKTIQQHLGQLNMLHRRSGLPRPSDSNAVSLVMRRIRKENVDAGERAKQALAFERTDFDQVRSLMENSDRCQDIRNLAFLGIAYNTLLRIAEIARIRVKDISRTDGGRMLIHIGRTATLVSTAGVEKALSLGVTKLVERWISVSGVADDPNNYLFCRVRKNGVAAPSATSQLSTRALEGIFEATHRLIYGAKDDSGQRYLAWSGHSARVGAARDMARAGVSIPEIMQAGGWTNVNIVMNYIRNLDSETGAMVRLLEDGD

T2: Cre recombinase monomer with Q311R mutation
T2 chain: T1 chain with A201K, Q311R

T3: Cre recombinase monomer with R292A mutation
T3 chain: T1 chain with A201K, R292A

T4: Cre recombinase monomer with R292E mutation
T4 chain: T1 chain with A201K, R292E

T5: Cre recombinase monomer with R292S mutation
T5 chain: T1 chain with A201K, R292S

T6: Cre recombinase monomer with R292M mutation
T6 chain: T1 chain with A201K, R292M

T7: Cre recombinase monomer with Y324F mutation
T7 chain: T1 chain with A201K, Y324F

T8: Cre recombinase monomer with Y324W mutation
T8 chain: T1 chain with A201K, Y324W

T9: Cre recombinase monomer with R292I mutation
T9 chain: T1 chain with A201K, R292I

T10: Cre recombinase monomer with R292N mutation
T10 chain: T1 chain with A201K, R292N

T11: Cre recombinase monomer with R292T mutation
T11 chain: T1 chain with A201K, R292T

B1: Cre recombinase monomer with E176H mutation (protein)
chain: T1 chain with E176H, A201K
B2: Cre recombinase monomer with E176I mutation (protein)
chain: T1 chain with E176I, A201K
B3: Cre recombinase monomer with E176V mutation (protein)
chain: T1 chain with E176V, A201K

Columns and labels:
[1] = target: T1, Cre recombinase monomer with K201A …
[2] = target: T2, Cre recombinase monomer with Q311R …
[3] = target: T3, Cre recombinase monomer with R292A …
[4] = target: T4, Cre recombinase monomer with R292E …
[5] = target: T5, Cre recombinase monomer with R292S …
[6] = target: T6, Cre recombinase monomer with R292M …
[7] = target: T7, Cre recombinase monomer with Y324F …
[8] = target: T8, Cre recombinase monomer with Y324W …
[9] = target: T9, Cre recombinase monomer with R292I …
[10] = target: T10, Cre recombinase monomer with R292N …
[11] = target: T11, Cre recombinase monomer with R292T …

Row | Protein | Median dimer activity (recombination on loxP) [1] [%] | Median dimer activity (recombination on loxP) [2] [%] | Median dimer activity (recombination on loxP) [3] [%] | Median dimer activity (recombination on loxP) [4] [%] | Median dimer activity (recombination on loxP) [5] [%] | Median dimer activity (recombination on loxP) [6] [%] | Median dimer activity (recombination on loxP) [7] [%] | Median dimer activity (recombination on loxP) [8] [%] | Median dimer activity (recombination on loxP) [9] [%] | Median dimer activity (recombination on loxP) [10] [%] | Median dimer activity (recombination on loxP) [11] [%]
1 | B1 | 33 | 51 | 55 | 38 | 68 | – | – | – | – | – | –
2 | B2 | – | 36 | – | – | 40 | 43 | 67 | 50 | – | – | –
3 | B3 | – | – | – | – | 28 | – | – | – | 33 | 31 | 45
